Target: recombinant FGF14 protein (aa 64–252) (human, UniProt Q92915-2 64-252)
Test: SPR

koff: 0.158 s⁻¹ | kon: 23200 M⁻¹ s⁻¹
Binder: KFKESVFENAYVIYSSMLYR (peptide, UniProt Q92915-2 149-168, looked up) [FGF14^Y158A mutant peptide]
